Values quoted from earlier work in publication PMC3078936.

Target: Bmf (Homo sapiens)
Settings: cited from earlier work

DYNLL1, sequence (P63167 whole entry): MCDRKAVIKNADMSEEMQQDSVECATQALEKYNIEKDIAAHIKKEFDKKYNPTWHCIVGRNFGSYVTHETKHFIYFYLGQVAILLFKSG

DYNLL1 (from UniProt P63167)
Kd: 0.75 µM
